The target of one assay is T1, rat IL-11 (rat, UniProt Q99MF5 22-199).
T1 construct: Invigate recombinant protein; also called rIL11
T1 sequence: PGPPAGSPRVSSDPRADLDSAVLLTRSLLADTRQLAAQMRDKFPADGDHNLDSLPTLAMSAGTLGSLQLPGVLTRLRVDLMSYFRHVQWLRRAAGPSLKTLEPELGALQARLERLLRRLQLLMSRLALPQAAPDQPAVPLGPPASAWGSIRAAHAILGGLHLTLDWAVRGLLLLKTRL
The assay can be described thus: SPR (Biacore), 25 C, antibody captured via anti-Fc, IL-11 as analyte. The procedure: (§1) To assess the binding kinetics and affinity of anti-IL-11 bispecific antibodies as well as their species cross-reactivity profile, binding assays were conducted using surface plasmon resonance (SPR). […] Antibodies were captured either via anti-human Fc IgGs (“Human antibody capture kit”, Order No. BR100839, Cytiva) or via anti-mouse Fc IgGs (“Mouse antibody capture kit, Order No. BR100383, Cytiva) covalently amine coupled to a Series S CM5 sensor chip (Cytiva) depending on the isotype. The amine coupling was carried out according to the manufacturer's instructions using 1-ethyl-3-(3-dimethylaminopropyl) carbodiimide hydrochloride (EDC), N-hydroxysuccinimide (NHS) and ethanolamine HCl, pH 8.5 (“Amine Coupling Kit” BR-1000-50, Cytiva.). Human, mouse, cynomolgus or rat IL-11 was used as analyte at several dilutions within the concentration range from 0.05-200 nM. For binding assays with only one concentration 200 nM IL-11 was used. The sensor surface was regenerated with glycine pH 1.7 after each antigen injection. Obtained sensorgrams were double referenced (subtraction of reference flow cell signal and buffer injection) and were fitted to a 1:1 Langmuir binding model to derive kinetic data using the Biacore T200 Evaluation software or the Biacore Insight software.
(§2) If no value is reported, there was either no binding or very low binding and multiphasic binding behavior.

The target in a further assay is T2, murine IL-11 (mouse, UniProt P47873 22-199).
T2 construct: Invigate recombinant protein; biotinylated when immobilized in the Di-complex ELISA; also called mIL11; mIL-11
T2 sequence: T1 sequence with N50S, F84L, A94G, A137V, V138I
The assay is described as above. The protocol: as §1, §2

The target in a further assay is T3, cynomolgus IL-11 (cynomolgus, UniProt P20808 22-199).
T3 construct: Invigate recombinant protein; also called cIL11; Macaca IL-11
T3 sequence: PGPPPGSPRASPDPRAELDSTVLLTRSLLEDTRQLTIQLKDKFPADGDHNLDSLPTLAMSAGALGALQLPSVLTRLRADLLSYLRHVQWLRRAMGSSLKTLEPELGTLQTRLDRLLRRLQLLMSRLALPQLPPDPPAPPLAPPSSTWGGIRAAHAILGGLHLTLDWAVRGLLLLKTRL
The description is as above. The procedure:
as §1, §2

In a further assay the target is T4, human IL-11 (human, UniProt P20809 22-199).
T4 construct: Invigate recombinant protein; biotinylated when immobilized in the Di-complex ELISA; also called hIL11; hIL-11
T4 sequence: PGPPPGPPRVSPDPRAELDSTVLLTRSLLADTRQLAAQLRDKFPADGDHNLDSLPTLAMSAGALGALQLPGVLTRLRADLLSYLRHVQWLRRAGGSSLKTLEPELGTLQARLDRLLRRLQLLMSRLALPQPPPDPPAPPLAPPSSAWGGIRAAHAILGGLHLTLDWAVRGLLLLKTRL
The assay can be described thus: Di-complex ELISA, canine IL11RA-hFc binding to immobilized hIL-11, competition. The protocol:
In the Di-complex ELISA format anti IL-11 antibodies are tested for the ability to interfere with the formation of complexes consisting of immobilized murine IL-11 (Invigate, e.g., lot #C210819-09) or human IL-11 (Invigate, e.g., lot #C121021-19), and murine IL11RA-Fc fusion proteins or canine IL11RA-human-Fc fusion protein (FIG. 17a, b).
Bispecific antibodies were subjected to the experimental assay procedure described in Example 18 and IC50 [M], respectively efficacy (%) were calculated accordingly.
On the technique in general: In an ELISA, binding on a coated surface is turned into a signal by an enzyme label.

Positions count from the first letter of the chain named.

B1: TPP-18068 (antibody, mouse IgG1)
heavy: EVQLLESGGGLVQPGGSLRLSCAASGFTFSSYGMHWVRQAPGKGLEWVSVISYDGSYKYYADSVKGRFTISRDNSKNTLYLQMNSLRAEDTAVYYCAAGVPDYWGQGTLVTVSSAKTTPPSVYPLAPGSAAQTNSMVTLGCLVKGYFPEPVTVTWNSGSLSSGVHTFPAVLQSDLYTLSSSVTVPSSTWPSETVTCNVAHPASSTKVDKKIVPRDCGCKPCICTVPEVSSVFIFPPKPKDVLTITLTPKVTCVVVDISKDDPEVQFSWFVDDVEVHTAQTQPREEQFNSTFRSVSELPIMHQDWLNGKEFKCRVNSAAFPAPIEKTISKTKGRPKAPQVYTIPPPKEQMAKDKVSLTCMITDFFPEDITVEWQWNGQPAENYKNTQPIMDTDGSYFVYSKLNVQKSNWEAGNTFTCSVLHEGLHNHHTEKSLSHSPGK
light: QSVLTQPPSASGTPGQRVTISCTGSSSNIGAGYDVHWYQQLPGTAPKLLIYSNNERPSGVPDRFSGSKSGTSASLAISGLRSEDEADYYCAAWDDSLNGPVFGGGTKLTVLGQPKSSPSVTLFPPSSEELETNKATLVCTITDFYPGVVTVDWKVDGTPVTQGMETTQPSKQSNNKYMASSYLTLTARAWERHSSYSCQVTHEGHTVEKSLSRADCS
notes: mIgG1, Lambda
By Kd is commonly meant the concentration at which binding is half-saturated. High values mean a looser complex, low ones a tighter complex. For the molecule B1, the Kd is 0.29 nM in the assay with rat IL-11, 0.35 nM with murine IL-11 and 3.8 nM with cynomolgus IL-11.

B2: TPP-29603 (bispecific antibody, IgG1)
chain 1: QVQLVESGGGVVQPGRSLRLSCAASGFTFSHYDMHWVRQAPGKGLEWVAVISYHGSVKFYADSVKGRFTISRDNSKNTLYLQMNSLRAEDTAVYYCARTPGFHFDYWGQGTLVTVSSGGGGSGGGGSGGGGSQSVLTQPPSASGTPGQRVTISCSGSSSNIGSNYVSWYQQLPGTAPKLLIYYDDLRPSGVPDRFSGSKSGTSASLAISGLRSEDEADYYCSAWDDSLSGVVFGGGTKLTVLGGGGSGGGGSGGGGSGVECPPCPAPPVAGPSVFIFPPKPKDVLTITLTPKVTCVVVDISKDDPEVQFSWFVDDVEVHTAQTQPREEQFNSTFRSVSELPIMHQDWLNGKEFKCRVNSAAFPAPIEKTISKTKGRPKAPQVYTIPPCKEQMAKDKVSLWCMITDFFPEDITVEWQWNGQPAENYKNTQPIMDTDGSYFVYSKLNVQKSNWEAGNTFTCSVLHEGLHNHHTEKSLSHSPGK
chain 2: EVQLLESGGGLVQPGGSLRLSCAASGFTFSSYGMHWVRQAPGKGLEWVAVISYDGSYKYYADSVKGRFTISRDNSKNTLYLQMNSLRAEDTAVYYCAAGVPDYWGQGTLVTVSSGGGGSGGGGSGGGGSQSVLTQPPSASGTPGQRVTISCSGSSSNIGSDYDVHWYQQLPGTAPKLLIYSNEERPSGVPDRFSGSKSGTSASLAISGLRSEDEADYYCSAWDSSLSGPVFGGGTKLTVLGGGGSGGGGSGGGGSGVECPPCPAPPVAGPSVFIFPPKPKDVLTITLTPKVTCVVVDISKDDPEVQFSWFVDDVEVHTAQTQPREEQFNSTFRSVSELPIMHQDWLNGKEFKCRVNSAAFPAPIEKTISKTKGRPKAPQVCTIPPPKEQMAKDKVSLSCAITDFFPEDITVEWQWNGQPAENYKNTQPIMDTDGSYFVVSKLNVQKSNWEAGNTFTCSVLHEGLHNHHTEKSLSHSPGK
notes: scFv-kih-mIgG1; bispecific comprising CDRs of TPP-29528 and TPP-29519
Usually IC50 stands for the concentration that gives 50% inhibition. The low end stands for greater potency, the high end for weaker potency. B2 gave an IC50 with human IL-11 of 1.7 nM.

The record behind these values is US20240317847A1 (Bayer, published 2024).
